T1: sulfate adenylyl transferase (Sat) / ATP sulfurylase (Oleidesulfovibrio alaskensis, UniProt Q30Z34)
T1 construct: gene Dde_2265
T1 sequence (Q30Z34 1-427): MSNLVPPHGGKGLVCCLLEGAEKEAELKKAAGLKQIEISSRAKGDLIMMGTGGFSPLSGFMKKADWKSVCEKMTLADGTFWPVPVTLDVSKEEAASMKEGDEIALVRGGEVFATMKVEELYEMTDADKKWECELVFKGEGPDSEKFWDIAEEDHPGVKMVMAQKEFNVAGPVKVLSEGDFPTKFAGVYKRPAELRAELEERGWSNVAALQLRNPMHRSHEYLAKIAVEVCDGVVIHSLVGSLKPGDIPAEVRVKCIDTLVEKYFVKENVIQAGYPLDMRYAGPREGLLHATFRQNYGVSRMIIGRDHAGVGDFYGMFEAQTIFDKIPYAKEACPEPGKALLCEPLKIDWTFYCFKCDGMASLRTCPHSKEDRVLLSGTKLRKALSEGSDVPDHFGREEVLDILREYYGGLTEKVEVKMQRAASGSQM


Experiments:
[1] = molecular target: T1, sulfate adenylyl transferase (Sat) / ATP sulfurylase; assay: pyrophosphate accumulation, modified molybdenum blue assay
[2] = substrate: O=[Se](=O)(O)O; assay: purified protein
[3] = substrate: [O]=[Cr](=[O])([OH])[OH]; assay: purified protein; conditions: alternative substrate in place of sulfate; co-substrate ATP

| Molecule | Ki [1] | Km [2] | kcat/Km [2] | Km [3] | kcat [3] | kcat/Km [3] |
| --- | --- | --- | --- | --- | --- | --- |
| O=[N+]([O-])O [NO3^−] | 3600 ± 270 µM |  |  |  |  |  |
| [O-][Cl+2]([O-])O [ClO3^−] | 316 ± 17 µM |  |  |  |  |  |
| sulfate adenylyl transferase (Sat) / ATP sulfurylase (Oleidesulfovibrio alaskensis G20) (protein) MSNLVPPHGGKGLVCCLLEGAEKEAELKKAAGLKQIEISSRAKGDLIMMGTGGFSPLSGFMKKADWKSVCEKMTLADGTFWPVPVTLDVSKEEAASMKEGDEIALVRGGEVFATMKVEELYEMTDADKKWECELVFKGEGPDSEKFWDIAEEDHPGVKMVMAQKEFNVAGPVKVLSEGDFPTKFAGVYKRPAELRAELEERGWSNVAALQLRNPMHRSHEYLAKIAVEVCDGVVIHSLVGSLKPGDIPAEVRVKCIDTLVEKYFVKENVIQAGYPLDMRYAGPREGLLHATFRQNYGVSRMIIGRDHAGVGDFYGMFEAQTIFDKIPYAKEACPEPGKALLCEPLKIDWTFYCFKCDGMASLRTCPHSKEDRVLLSGTKLRKALSEGSDVPDHFGREEVLDILREYYGGLTEKVEVKMQRAASGSQM |  | 1770 ± 550 µM | 160 M⁻¹ s⁻¹ | 793 ± 140 µM | 16 s⁻¹ | 20000 M⁻¹ s⁻¹ |
